Assay results reported in US8778340B2, “Anti-angiogenesis therapy for the treatment of ovarian cancer” (priority 2010, dated 2014).

How the values were obtained:
[1] = tested on: newly diagnosed, previously untreated, stage III or IV epithelial ovarian, primary peritoneal or fallopian tube cancer; assay: Phase III trial of carboplatin and paclitaxel plus placebo versus plus concurrent bevacizumab versus plus concurrent and extended bevacizumab (Example 1, GOG 0218); type: in vivo, human; conditions: preliminary assessment of safety
Description: Primary Objectives include to determine if the addition of 5 concurrent cycles of bevacizumab to 6 cycles of standard therapy (carboplatin and paclitaxel) [Arm II] increases the duration of progression-free survival (PFS) when compared to 6 cycles of standard therapy alone [Arm I] in women with newly diagnosed stage III (with any gross residual disease) and stage IV, epithelial ovarian, peritoneal primary or fallopian tube cancer; and, to determine if the addition of 5 concurrent cycles of bevacizumab plus extended bevacizumab for 16 cycles beyond the 6 cycles of standard therapy (carboplatin and paclitaxel) [Arm III] increases progression-free survival when compared to 6 cycles of standard therapy [Arm I] in women with newly diagnosed stage III (with any gross residual disease) and stage IV, epithelial ovarian, peritoneal primary or fallopian tube cancer.
In this study two experimental arms were selected to compare with standard cytotoxic chemotherapy with paclitaxel and carboplatin: one incorporating 5 cycles of bevacizumab (concurrent bevacizumab) and the other with bevacizumab for an additional 16 cycles after completion of chemotherapy with paclitaxel and carboplatin (extended bevacizumab). Calvert Formula for Carboplatin (AUC) Dosing: Total dose(mg)=target AUC(in mg/mL/minute)*[GFR(in mL/minute)+25]. […]

[2] = tested on: newly diagnosed high risk FIGO stage I-IIa and stage IIb-IV epithelial ovarian, fallopian tube or primary peritoneal cancer; assay: ICON7 phase III randomized two-arm trial of adding bevacizumab to carboplatin and paclitaxel (Example 2); type: in vivo, human; conditions: for PFS hazard ratio (HR) (95% CI): CPB7.5+ versus CP, Log-Rank Test p 0.0010
Description: Results are presented from a phase III randomized study (ICON7) to evaluate the safety and efficacy of adding bevacizumab to standard chemotherapy with carboplatin and paclitaxel. The primary endpoint was to determine whether the addition of bevacizumab to standard chemotherapy improves progression free survival (PFS) when compared to standard chemotherapy alone in women with newly diagnosed, histologically confirmed, high risk International Federation of Gynaecology and Obstetrics (FIGO) stage I and IIa (Grade 3 or clear cell carcinoma only) and FIGO stage IIb-IV (all grades and all histological types) epithelial ovarian, fallopian tube or primary peritoneal cancer, who have undergone initial surgery (either debulking cytoreductive surgery or a biopsy if the patient has FIGO stage IV disease) and who would not be considered for cytoreductive surgery prior to disease progression. Secondary endpoints included overall survival (OS), response rate, duration of response, biological progression free interval (defined by increasing CA 125 or PFIBIO), safety and quality of life. ICON7 was a 2-arm randomized clinical trial comparing standard therapy (carboplatin and paclitaxel) with one investigational arm incorporating bevacizumab in combination with paclitaxel and carboplatin (see FIG. 8). A total of 1528 eligible women participated in the trial.
ICON7 included patients with newly diagnosed, histologically confirmed, high risk FIGO stage I and IIa (Grade 3 or clear cell carcinoma only) and FIGO stage IIb-IV (all grades and all histological types) epithelial ovarian, fallopian tube or primary peritoneal cancer, who have undergone initial surgery (either debulking cytoreductive surgery or a biopsy if the patient has FIGO stage IV disease) and who will not be considered for cytoreductive surgery prior to disease progression. Patients with measurable and non-measurable disease are eligible. Patients were considered eligible for enrollment in this trial if they fulfilled all the inclusion criteria and none of the exclusion criteria as described below:
Tumor assessments, either by CT or MRI scan, with measurements using the RECIST criteria, were performed after three and six cycles of chemotherapy, and at around nine months and 12 months in the first year, or after cycle 12 and cycle 18 of treatment for patients on the research arm. In the second and third year of the trial tumour assessments were repeated every six months and thereafter as clinically indicated. These scans were performed irrespective of whether the patient has been optimally or sub-optimally debulked, and irrespective of whether there is measurable disease, or not, on the baseline scan.
Patients were clinically assessed and CA 125 measured at the start of every chemotherapy cycle and then six weekly during the first year of the trial. In the second and third year of the trial patients were assessed and CA 125 measured every three months. In the fourth and fifth year patients were clinically assessed and CA 125 measured every six months. Thereafter assessments were yearly. Progression based on CA 125 criteria alone were verified with a CT scan. If this was negative then it was repeated at the time of suspected clinical progression.
Regular physical examination and routine blood tests were performed during treatment to monitor patient safety. Quality of life (QoL) were assessed using the EORTC QLQ C-30+OV-28 and EQ-5D questionnaires at the start of every chemotherapy cycle, every six weeks until the end of the first year and then every three months until treatment for progression commenced, or to the end of year two. An additional QoL form was completed by all patients still alive three years after randomisation. Adverse events and medical resource use were documented during the study treatment and follow-up period.

[3] = tested on: platinum-sensitive recurrent epithelial ovarian, primary peritoneal, or fallopian tube carcinoma; assay: OCEANS phase III placebo-controlled trial of carboplatin and gemcitabine plus bevacizumab (Example 3); type: in vivo, human
Experimental: This example describes a placebo-controlled, randomized, multicenter Phase III study evaluating the efficacy and safety of bevacizumab (15 mg/kg, Day 1, every 21 days), administered in combination with carboplatin (area under the curve [AUC] 4, Day 1, every 21 days) with gemcitabine (1000 mg/m2, Day 1 and Day 8, every 21 days) in women with platinum sensitive recurrent epithelial ovarian, primary peritoneal, or fallopian tube carcinoma. About 480 patients were enrolled over a period of approximately 2.5 years. Patients were randomized in either carboplatin and gemcitabine with placebo versus carboplatin and gemcitabine with bevacizumab. […]
This phase III study of bevacizumab plus chemotherapy in women with ovarian cancer met its primary endpoint. […] PFS is defined as the time from randomization to disease progression as determined by the investigator or death due to any cause, whichever occurs first. The primary endpoint of PFS was assessed by the study investigators. Measurable disease was investigator assessed using modified RECIST (Therasse et al. 2000), e.g., every 9 weeks throughout the course of the study. […]

[4] = tested on: persistent or recurrent epithelial ovarian cancer or primary peritoneal cancer; conditions: 15 mg/kg every 21 days, cited from earlier work
[5] = tested on: platinum resistant ovarian cancer or primary peritoneal serous cancer; conditions: same dose and schedule as GOG 170-D; 44 patients; cited from earlier work

bevacizumab: recombinant humanized anti-VEGF monoclonal antibody; human IgG1 framework with CDRs from murine antibody A.4.6.1
tolerability of the treatment regimen / adverse events [1]: generally well tolerated | preliminary assessment of adverse events ([2]; in vivo): consistent with previous studies | safety findings / adverse events ([3]; in vivo): No new safety findings were observed | response rate ([4]; NCI RECIST): 21% | median PFS [4]: 4.7 months | progression-free for at least 6 months [4]: 40% | progression-free for at least 6 months [5]: 27% | responses [5]: 16%

CPB7.5+: ICON7 chemotherapy plus bevacizumab arm (Arm B), bevacizumab continued as maintenance for a total duration of 12 months
PFS hazard ratio (HR) (95% CI) [2]: 0.79 (0.68; 0.91) | PFS hazard ratio (HR) (95% CI) ([2]; listed as paclitaxel, carboplatin and anti-VEGF antibody): 0.79 | All Deaths ([2]; number of patients (percent)): 107 (14.3%) | All Related Deaths ([2]; number of patients (percent)): 5 (0.7%) | Deaths not due to Progression ([2]; number of patients (percent)): 19 (2.5%) | Pts w. Grade 3/4/5 AE ([2]; number of patients (percent)): 479 (64.2%) | Pts w. Serious AE ([2]; number of patients (percent)): 279 (37.4%) | Pts who Disc. Any Treatment ([2]; number of patients (percent)): 293 (39.3%) | Pts who Disc. Any Treatment due to AE ([2]; number of patients (percent)): 162 (21.7%) | PFS median ([2]; primary analysis of PFS): 18.3 months | difference in median PFS ([2]; versus paclitaxel and carboplatin alone): 2.3 months

bevacizumab plus chemotherapy: OCEANS: Avastin 15 mg/kg with carboplatin and gemcitabine, followed by Avastin alone until disease progression
progression-free survival compared to chemotherapy alone ([3]; investigator assessed, modified RECIST, followed by bevacizumab alone until disease progression): increased
